One molecule from patent US20180071366A1 can be followed below.

Assay [1] concerns the target recombinant human amylin 3 receptor (hAMYR3) (human), P30988. Put plainly: cell-based or functional assay.
In assay [2] the target is recombinant human calcitonin receptor (hCT-R) (human), P30988. The experiment in a line: cell-based or functional assay.

Numbered stars: 1 amine (or outer) side, 2 acyl side, 3 side chain; on linkers, the order of the positions; unused ones are H or OH. Bridge positions count the residues as written; N and C are the ends. Square brackets hold non-standard residues; d marks the D form. * marks the point of attachment. C20 diacid = O=C(O)CCCCCCCCCCCCCCCCCCC(=O)*; γGlu = O=C(O)[C@H](CCC(=O)[*:2])N[*:1]; Hyp = O=C(O)[C@@H]1C[C@@H](O)CN1; NMeI = CC[C@H](C)[C@H](NC)C(=O)O; Dab = NCC[C@H](N)C(=O)O; Sar = CNCC(=O)O

Chain of recombinant human calcitonin receptor (hCT-R) (human), P30988 (P30988 25-474): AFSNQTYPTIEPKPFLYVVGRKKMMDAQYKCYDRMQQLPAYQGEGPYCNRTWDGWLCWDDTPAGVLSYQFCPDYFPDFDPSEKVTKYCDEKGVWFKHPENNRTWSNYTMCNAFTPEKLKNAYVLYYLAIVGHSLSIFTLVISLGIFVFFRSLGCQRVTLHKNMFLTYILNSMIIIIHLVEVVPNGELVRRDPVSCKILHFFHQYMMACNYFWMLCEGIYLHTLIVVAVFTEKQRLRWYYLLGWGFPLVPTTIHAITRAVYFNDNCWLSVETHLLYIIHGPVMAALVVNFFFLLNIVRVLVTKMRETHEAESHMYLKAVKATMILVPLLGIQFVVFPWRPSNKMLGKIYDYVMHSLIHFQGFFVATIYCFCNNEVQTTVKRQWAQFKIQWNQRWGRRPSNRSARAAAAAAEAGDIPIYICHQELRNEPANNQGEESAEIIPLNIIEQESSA
Chain of recombinant human amylin 3 receptor (hAMYR3) (human), P30988 (P30988 25-474, chain 1 of 2): as the sequence (P30988 25-474) above
Chain of recombinant human amylin 3 receptor (hAMYR3) (human), P30988 (O60896 24-148, chain 2 of 2, further chain): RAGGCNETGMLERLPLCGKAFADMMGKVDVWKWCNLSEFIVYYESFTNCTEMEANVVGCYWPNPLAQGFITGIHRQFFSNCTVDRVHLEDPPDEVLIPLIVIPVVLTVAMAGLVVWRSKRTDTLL

B1: Compound 49 (peptide)
peptide: {C20 diacid-γGlu}-R[Dab]GTATEATERLAHFLQRSSF[Sar]A[NMeI]LSSTEVGSNT[Hyp]-NH2
modifications: lactam 2-7
SMILES: CC[C@H](C)[C@@H](C(=O)N[C@@H](CC(C)C)C(=O)N[C@@H](CO)C(=O)N[C@@H](CO)C(=O)N[C@H](C(=O)N[C@@H](CCC(=O)O)C(=O)N[C@H](C(=O)NCC(=O)N[C@@H](CO)C(=O)N[C@@H](CC(N)=O)C(=O)N[C@H](C(=O)N1C[C@H](O)C[C@H]1C(N)=O)[C@@H](C)O)C(C)C)[C@@H](C)O)N(C)C(=O)[C@H](C)NC(=O)CN(C)C(=O)[C@H](Cc1ccccc1)NC(=O)[C@H](CO)NC(=O)[C@H](CO)NC(=O)[C@H](CCCNC(=N)N)NC(=O)[C@H](CCC(N)=O)NC(=O)[C@H](CC(C)C)NC(=O)[C@H](Cc1ccccc1)NC(=O)[C@H](Cc1c[nH]cn1)NC(=O)[C@H](C)NC(=O)[C@H](CC(C)C)NC(=O)[C@H](CCCNC(=N)N)NC(=O)[C@H](CCC(=O)O)NC(=O)[C@@H](NC(=O)[C@H](C)NC(=O)[C@@H]1CCC(=O)NCC[C@H](NC(=O)[C@H](CCCNC(=N)N)NC(=O)CC[C@H](NC(=O)CCCCCCCCCCCCCCCCCCC(=O)O)C(=O)O)C(=O)NCC(=O)N[C@@H]([C@@H](C)O)C(=O)N[C@@H](C)C(=O)N[C@@H]([C@@H](C)O)C(=O)N1)[C@@H](C)O
On to B1, for which the hAMYR3 EC50 [nM] (cAMP formation, 1321N1 cells expressing hAMYR3) in assay [1] is 0.442 nM. Further, the hCT-R EC50 [nM] (cAMP formation, 1321N1 cells expressing hCT-R) in assay [2] worked out at 1.04 nM.
